From US20200207853A1 (PHANES THERAPEUTICS, published 2020)
Numbering of substitutions follows the chain as printed.

B1: H6L5 (antibody, V domains shown)
VH: QIQLVQSGAEVKKPGASVKVSCKASGYTFTAYYINWVRQAPGQRLEWIGWIYPGSGNTKYNEKFKGRVTLTVDTSASTAYIELSSLRSEDTAVYFCARRGPWYFDVWGQGTTVTVSS
VL: EIVMTQSPATLSLSPGERATLSCRASENVGTYVSWYQQKPGQAPNLLIYGASNRYTGIPARFSGSGSGTDFTLTISSLQPEDFAVYHCGQTYSYPLTFGQGTKLEIK
notes: also called humanized anti-CD47 mAb H6L5
B2: H6L8 (antibody, V domains shown)
VH: B1 VH
VL: B1 VL with E1N, R24K, A43S, I58V, A60D, G68A, V85D
notes: also called humanized anti-CD47 mAb H6L8
B3: H5L5 (antibody, V domains shown)
VH: B1 VH with F95Y
VL: B1 VL
notes: also called humanized anti-CD47 mAb H5L5
B4: H6L7 (antibody, V domains shown)
VH: B1 VH
VL: B1 VL with R24K, A43S, A60D
notes: also called humanized anti-CD47 mAb H6L7
B5: H8L10 (antibody, V domains shown)
VH: QVQLVQSGAEVKKPGASVKVSCKASGYTFTSYWMHWVRQAPGQGLEWIGNIDPSDSETHYAQKFQGRVTLTVDKSTSTVYMELSSLRSEDTAVYYCAGTDLAYWGQGTLVTVSS
VL: EIVMTQSPGTLSLSPGERATLSCHASQNINVWLSWYQQKPGQAPRLLIYKASNLHTGIPDRFSGSGSGTDFTLTISRLEPEDFAVYYCQQGQSYPFTFGQGTKVEIK
notes: Humanized from mouse 17C6A; also called humanized anti-CD47 mAb H8L10
B6: H2L3 (antibody, V domains shown)
VH: QVQLVQSGAEVKKPGASVKLSCKASGYTFTSYWMHWVRQAPGQGLEWMGNIDPSDSETHYNQKFKDRVTLTVDTSTSTAYMELSSLRSEDTAVYYCSRWGYYGKSAMDYWGQGTLVTVSS
VL: AVQLTQSPSFLSASVGQRITINCRASKSISKYLAWYQEKPGKANKLLIYSGSTLQSGIPSRFSGSGSGTDFTLTISSLQPEDFAMYYCQQHNEYPWTFGGGTKVEIK
notes: also called humanized anti-CD47 mAb H2L3
B7: H2L4 (antibody, V domains shown)
VH: B6 VH
VL: B6 VL with L4I, R18T, Q79E
notes: also called humanized anti-CD47 mAb H2L4
B8: H2L1 (antibody, V domains shown)
VH: B6 VH
VL: B6 VL with Q17D, I19V, N22T, E38Q, I58V, D70E
notes: also called humanized anti-CD47 mAb H2L1
B9: H3L2 (antibody, V domains shown)
VH: B6 VH with M48I, V68A
VL: B6 VL with E38Q, I58V, D70E
notes: also called humanized anti-CD47 mAb H3L2
B10: H1L3 (antibody, V domains shown)
VH: B6 VH with L20V, A79V
VL: B6 VL
notes: also called humanized anti-CD47 mAb H1L3
B11: H1L2 (antibody, V domains shown)
VH: B6 VH with L20V, A79V
VL: B6 VL with E38Q, I58V, D70E
notes: Humanized from mouse 13B18A; also called humanized anti-CD47 mAb H1L2
B12: H1L4 (antibody, V domains shown)
VH: B6 VH with L20V, A79V
VL: B6 VL with L4I, R18T, Q79E
notes: also called humanized anti-CD47 mAb H1L4
B13: H3L9 (antibody, V domains shown)
VH: B6 VH with M48I, V68A
VL: B6 VL with A1D, Q17D, I19V, N22T, E38Q, I58V, D70E
notes: also called humanized anti-CD47 mAb H3L9
B14: H3L4 (antibody, V domains shown)
VH: B6 VH with M48I, V68A
VL: B6 VL with L4I, R18T, Q79E
notes: also called humanized anti-CD47 mAb H3L4

Biological target: T1, Recombinant human CD47(ECD)-HIS (human, UniProt Q08722 19-139, limits assumed)
T1 construct: also called huCD47-HIS; not shown: HIS tag
T1 sequence (Q08722 19-139 limits assumed): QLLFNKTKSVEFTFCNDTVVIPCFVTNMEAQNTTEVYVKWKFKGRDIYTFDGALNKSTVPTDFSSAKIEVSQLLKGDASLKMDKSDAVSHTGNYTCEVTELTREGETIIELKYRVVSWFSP
Assay: competition ELISA: blocking of SIRPα binding to CD47(ECD)-HIS

IC50 [nM] | Binder
9.67 | B1
13.2 | B2
15.1 | B3
39.2 | B4
1.05 | B5
9.56 | B6
6.52 | B7
4.73 | B8
7.88 | B9
7.43 | B10
6.8 | B11
8.09 | B12
9.6 | B13
5.35 | B14
